Broadly, the Kd is a measure of binding affinity in units of concentration.

Like-named read-outs stand apart in the source and are kept apart here. Ends that are not written are not given here.

For test [1], the target named is T1, endogenous PDK1 (Homo sapiens, UniProt O15530).
T1 construct: endogenous in cells; host or cells: 293 cells
T1 sequence (O15530 1-556): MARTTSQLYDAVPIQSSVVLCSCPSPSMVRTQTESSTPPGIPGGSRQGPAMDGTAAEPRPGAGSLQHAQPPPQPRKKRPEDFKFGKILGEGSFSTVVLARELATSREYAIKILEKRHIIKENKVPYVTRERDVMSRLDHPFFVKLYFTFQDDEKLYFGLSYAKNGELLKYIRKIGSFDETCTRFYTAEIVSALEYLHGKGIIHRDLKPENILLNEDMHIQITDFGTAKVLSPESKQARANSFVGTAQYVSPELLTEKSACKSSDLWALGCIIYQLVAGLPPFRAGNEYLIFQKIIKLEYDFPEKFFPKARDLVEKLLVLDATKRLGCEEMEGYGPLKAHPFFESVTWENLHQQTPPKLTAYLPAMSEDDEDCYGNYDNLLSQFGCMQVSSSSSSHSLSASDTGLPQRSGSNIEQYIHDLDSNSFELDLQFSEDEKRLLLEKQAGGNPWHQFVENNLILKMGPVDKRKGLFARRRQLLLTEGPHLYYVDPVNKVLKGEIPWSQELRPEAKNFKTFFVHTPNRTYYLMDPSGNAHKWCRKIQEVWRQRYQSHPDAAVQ
The experiment in a line: Association of endogenous PDK1 with GST-PIF proteins purified from 293 cells. Format: binding. The settings on record: expressed in 293 cells, glutathione-Sepharose purified; PDK1 immunoblot and activity. On the procedure: FIG. 3. Mapping the residues on PIF that are required for the interaction with PDK1. (A) 293 cells were transiently transfected with DNA constructs expressing either the wild type GST-PIF or the indicated point mutations of this protein. The cells were lysed and the GST fusion proteins purified by affinity chromatography on glutathione-Sepharose beads. Each GST-fusion protein was incubated for 30 min at 30° C. with GST-S473D-PKBα and MgATP in the presence or absence of phospholipid vesicles containing 100 μM PtdCho, 100 μM PtdSer, 10 μM sn-1-stearoyl-2-arachidonoyl-D-PtdIns(3,4,5)P3, and the increase in specific activity of GST-S473D-PKBα was determined relative to a control incubation in which the GST fusion protein was omitted. The basal activity of GST-S473D-PKBα was 3.5 U/mg. 2 μg of each protein was electrophoresed on a 10% SDS/polyacrylamide gel and either immunoblotted using a PDK1 antibody raised against whole protein to detect any endogenous PDK1, or stained with Coomassie blue to establish the level of expression of the GST-PIF protein. Similar results were obtained in 5 separate experiments using 2 or more preparations of the wild type and mutant GST-PIF proteins. (B) Yeast harbouring the pAS2-1 wild type PDK1 vector (“PDK1-Vector”) or the empty pAS2-1 vector (“Vector”) were transformed with pGAD10 plasmid coding for the expression of the wild type PIF or the indicated mutants of PIF. The resulting yeast strain was grown on SD-Leu-Trp-Ura-His+3-AT medium which only permits growth of yeast constructs in which GST-PIF and PDK1 are capable of interacting.
Expression of GST-fusion proteins in 293 cells. Up to twenty 10 cm diameter dishes of 293 cells were cultured and each dish transfected with 20 μg of pEBG2T DNA encoding the desired GST-fusion protein using a modified calcium phosphate method. In experiments described in FIG. 1 in which Myc-PDK1 constructs (pCMV5 vector) were coexpressed with GST-PIF (pEBG2T vector) or GST alone (empty pEBG2T vector) 10 μg of each construct was used. […]
(In general: In western blotting, separated proteins are transferred to a membrane and probed.)

Test [2] relates to PDK1. Kind of test: Activation of GST-ΔPH-PKBα by PDK1 with or without PIF and phosphoinositide. The class given is biochemical. The settings on record: absence of PtdIns(3,4,5)P3. The procedure: FIG. 8. Maximal activation of PKB by PDK1/PIF requires PtdIns(3,4,5)P3 to interact with both PKB and PDK1. […] The basal activity of GST-ΔPH-PKBα was 3.0 U/mg.
Measurement of PKBα activation after incubation with GST-PIF. This assay was carried out in 2 stages, as described previously; briefly, in the first, GST-PKBα was incubated with GST-PIF (or other indicated PDK1 proteins in the presence or absence of peptides) in the presence of MgATP and phospholipid vesicles.
In Stage 1, an 15 μl reaction mixture was set up containing 66.5 mM Tris/HCl pH 7.5, 0.13 mM EGTA, 0.13% (by vol) 2-mercaptoethanol, 3.3 μM PKI, 1.3 μM microcystin-LR, 13.3 mM Mg(Ac)2, 133 μM unlabelled ATP, 0.4 μM GST-PKBA, 133 μM PtdSer, 133 μM PtdCho in the presence or absence of 13.3 μM PtdIns(3,4,5)P3. The assay was initiated by the addition of 5 μl of 0.2 mg/ml GST-PIF (or other indicated proteins or peptides), after incubation for 30 min at 30° C., stage 2 of the assay was initiated by the addition of 30 μl of a mixture made up of Buffer B containing 2.5 μM PKI, 1 μM microcystin-LR, 10 mM Mg(Ac)2, 100 μM [γ^32P]ATP (200-400 cpm/pmol), 100 μM of the peptide RPRTAAF (SEQ ID NO:13) and 1.25% (by vol) Triton X-100. After 10 min at 30° C., the reactions were terminated by spotting the reaction mixture on to P81 phosphocellulose paper. The papers were washed in 75 mM phosphoric acid and analysed as described previously. A control reaction in which GST-PKBα was omitted was taken as the blank and was always less than 5% of the activity measured in the presence of GST-PKBα. The basal GST-PKBα activity is the activity measured in the absence of PDK1. 1 Unit of GST-PKBα activity was that amount of enzyme required to catalyse the phosphorylation of 1 nmol of the peptide RPRTAAF (SEQ ID NO:13) in 1 min. The assays were linear with time up to a final concentration of 3 U/ml of PDK1 activity in the assay.

Test [3] concerns the target T2, PDK1 (Homo sapiens, UniProt O15530).
T2 construct: expressed in transfected cells; host or cells: yeast strain Y166
T2 sequence (O15530 1-556): T1 sequence (O15530 1-556)
The experiment in a line: Yeast two hybrid interaction of PIF with PDK1. The class given is binding. An excerpt: (§1) FIG. 1. Two hybrid interaction of PIF with the kinase domain of PDK1. Yeast were transformed with a pGAD10 plasmid (LEU2) harbouring the C-terminal 77 amino acids of PRK2 (termed PIF) in the presence of either a pAS2-1 plasmid (TRP1) coding for the expression of the wild type PDK1, the kinase domain of PDK1 (residues 1 to 404) or the PH domain of PDK1 (residues 428 to 556) or the empty pAS2-1 vector as a control (denoted by—(A). The position on the plate of each yeast strain is indicated in (A). In (B) the yeast are grown on SD-Leu and Trp deficient media in which all the strains of yeast are capable of growing independently of whether PIF is interacting with PDK1. An interaction between PIF and PDK1 leads to the expression of reporter genes coding for URA3 and HIS1 that will enable growth on SD-Leu-Trp-Ura-His+3-AT medium (C) as well as the induction of β-galactosidase gene expression (D). Alignment of the amino acid sequence of the C-terminal 77 amino acids of PRK2 with the equivalent region of AGC subfamily kinases indicated (E). Identical residues are denoted by white-on-black letters, and similar residues by grey boxes. PRK2 (SEQ ID NO:14; PRK1 (SEQ ID NO:15); PKBα (SEQ ID NO:16); P70S6k (SEQ ID NO:17); SGK (SEQ ID NO:18); PKCζ (SEQ ID NO:19); PKCα (SEQ ID NO:20); PKCβ (SEQ ID NO:21).
(§2) Myc-tagged human PDK1, kinase domain of PDK1 (residues 1-404) and the PH domain of PDK1 (428 to 556) were subcloned into the EcoRI/SalI of the yeast pAS2-1 vector. A yeast two hybrid screen was carried out using a human skeletal muscle library subcloned into the pGAD10 vector (Clontech) transformed into the yeast strain Y166. 4×10^6 yeast cells were transformed with pGAD10 library constructs and PDK1 constructs in the pAS2-1 vector. […] In this system interacting clones from the library are able to grow in medium lacking histidine and uracil and express β-galactosidase which was detected using the Clontech protocol. pGAD10 plasmids from interacting clones were isolated transferred to E. coli, and sequenced. […]

For test [4], the target named is T3, PDK1 (Homo sapiens, UniProt O15530).
T3 construct: expressed in transfected cells; host or cells: yeast strain Y166
T3 sequence (O15530 1-404): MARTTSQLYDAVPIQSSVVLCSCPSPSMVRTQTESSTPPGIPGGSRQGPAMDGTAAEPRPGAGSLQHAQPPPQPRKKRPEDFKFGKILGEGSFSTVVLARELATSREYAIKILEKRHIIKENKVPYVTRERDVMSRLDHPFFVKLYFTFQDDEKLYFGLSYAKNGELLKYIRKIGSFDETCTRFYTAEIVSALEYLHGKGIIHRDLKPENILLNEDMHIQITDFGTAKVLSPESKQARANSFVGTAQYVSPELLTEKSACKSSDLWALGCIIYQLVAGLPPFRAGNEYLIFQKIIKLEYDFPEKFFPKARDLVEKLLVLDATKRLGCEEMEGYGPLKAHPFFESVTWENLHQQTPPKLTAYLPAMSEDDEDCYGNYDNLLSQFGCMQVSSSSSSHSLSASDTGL
Kind of test: Yeast two hybrid interaction of PIF with PDK1. The class given is binding.
Source text: as §1, §2
This is another data set of the same source.

Test [5] addresses T4, PDK1 (Homo sapiens, UniProt O15530).
T4 construct: expressed in transfected cells; host or cells: yeast strain Y166
T4 sequence (O15530 428-556): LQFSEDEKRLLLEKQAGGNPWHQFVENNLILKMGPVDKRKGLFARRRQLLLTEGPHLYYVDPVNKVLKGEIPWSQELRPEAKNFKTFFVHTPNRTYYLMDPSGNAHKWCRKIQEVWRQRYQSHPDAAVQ
Kind of test: Yeast two hybrid interaction of PIF with PDK1. Format: binding.
Source text: as §1, §2
This is another data set of the same source.

Test [6] concerns the target T5, His-PDK1 (Homo sapiens, UniProt O15530).
T5 construct: made in house; host or cells: Sf21 insect cells (baculovirus, pFASTBAC HTb)
T5 sequence (O15530 1-556): T1 sequence (O15530 1-556)
The experiment in a line: Surface Plasmon Resonance (BiaCore) binding of His-PDK1 to GST-PIF / Region B peptide. On the procedure: FIG. 12. Quantitative analysis of the binding of PDK1 to PIF. Surface Plasmon Resonance measurements were carried out on a BiaCore instrument as described in the methods section. […] The responses at steady state binding were recorded. […] All data are single determinations from a representative experiment that was repeated at least 3 times with similar results.
BiaCore measurements. GST-PIF was coupled through amine groups to the Sensor Chip CM5 according to the manufacturer's instructions. […] The 24 residue peptide overlapping Region B was biotinylated through its C-terminal Cys and bound to Avidin coated Sensor Chip SA. […] The decrease in steady state binding was used to determine the Kd of interaction between PDK1 and the peptide, according to the […] relationship. The measure of response in our experiments is termed RU; 1000 RU=1 ng/mm^2 of protein bound to the surface.

As to “F974: GST-PIF mutant, F974 mutated to Ala [Lipid F974]”, the “association of endogenous PDK1 with GST-PIF protein” value (shortened to “association of endogenous PDK1”) in test [1] is recorded as “completely abolished”. In the case of “F977: GST-PIF mutant, F977 mutated to Ala [Lipid F977]”, the “association of endogenous PDK1” value in test [1] is listed as “completely abolished”. For PIF: C-terminal 77 amino acids of PRK2, the “inhibition of the catalytic activity of PDK1” value in test [2] is about 2 fold. In addition, in test [3], the “two hybrid interaction with full length PDK1” value is “positive interaction”. Also, in test [4], the “two hybrid interaction with the isolated kinase domain of PDK1” value is “positive interaction”. For the same substance, the “two hybrid interaction with the PH domain of PDK1” value in test [5] was “not”. With “REPRILSEEEQEMFRDFDYIADWC [Region B peptide]”, the Kd is 1500 nM in test [6] (His-PDK1 0.5 μM mixed with free peptide, injected over immobilised peptide, read-out: Kd from competition by addition of free peptide); 800 nM in test [6] (immobilised and biotinylated 24 residue peptide, His-PDK1 injected, read-out: Kd).

For “Y979: GST-PIF mutant, Y979 mutated to Ala [Lipid Y979]”, the “association of endogenous PDK1” value in test [1] was “completely abolished”.

Values taken from patent US20070196883A1, “ENZYME” (UNIVERSITY OF DUNDEE, priority 1999, published 2007).
